Laboratory results published in US7057015B1, “Hormone receptor functional dimers and methods of their use” (The Salk Institute for Biological Studies, priority 1999, dated 2006).

B1: human retinoid X receptor alpha (monomeric) (receptor, UniProt P19793 1-462, looked up)
chain: MDTKHFLPLDFSTQVNSSLTSPTGRGSMAAPSLHPSLGPGIGSPGQLHSPISTLSSPINGMGPPFSVISSPMGPHSMSVPTTPTLGFSTGSPQLSSPMNPVSSSEDIKPPLGLNGVLKVPAHPSGNMASFTKHICAICGDRSSGKHYGVYSCEGCKGFFKRTVRKDLTYTCRDNKDCLIDKRQRNRCQYCRYQKCLAMGMKREAVQEERQRGKDRNENEVESTSSANEDMPVERILEAELAVEPKTETYVEANMGLNPSSPNDPVTNICQAADKQLFTLVEWAKRIPHFSELPLDDQVILLRAGWNELLIASFSHRSIAVKDGILLATGLHVHRNSAHSAGVGAIFDRVLTELVSKMRDMQMDKTELGCLRAIVLFNPDSKGLSNPAEVEALREKVYASLEAYCKHKYPEQPGRFAKLLLRLPALRSIGLKCLEHLFFFKLIGDTPIDTFLMEMLEAPHQMT
notes: also called RXR; hRXR
B2: Drosophila melanogaster ultraspiracle protein (monomeric) (receptor, UniProt P20153 1-508, looked up)
chain: MDNCDQDASFRLSHIKEEVKPDISQLNDSNNSSFSPKAESPVPFMQAMSMVHVLPGSNSASSNNNSAGDAQMAQAPNSAGGSAAAAVQQQYPPNHPLSGSKHLCSICGDRASGKHYGVYSCEGCKGFFKRTVRKDLTYACRENRNCIIDKRQRNRCQYCRYQKCLTCGMKREAVQEERQRGARNAAGRLSASGGGSSGPGSVGGSSSQGGGGGGGVSGGMGSGNGSDDFMTNSVSRDFSIERIIEAEQRAETQCGDRALTFLRVGPYSTVQPDYKGAVSALCQVVNKQLFQMVEYARMMPHFAQVPLDDQVILLKAAWIELLIANVAWCSIVSLDDGGAGGGGGGLGHDGSFERRSPGLQPQQLFLNQSFSYHRNSAIKAGVSAIFDRILSELSVKMKRLNLDRRELSCLKAIILYNPDIRGIKSRAEIEMCREKVYACLDEHCRLEHPGDDGRFAQLLLRLPALRSISLKCQDHLFLFRITSDRPLEELFLEQLEAPPPPGLAMKLE
notes: also called Usp; dmUsp

Molecular target: T1, Drosophila melanogaster ecdysone receptor (monomeric) (Drosophila melanogaster, UniProt P34021 1-878)
T1 construct: also called EcR; dmEcR
T1 sequence (looked up): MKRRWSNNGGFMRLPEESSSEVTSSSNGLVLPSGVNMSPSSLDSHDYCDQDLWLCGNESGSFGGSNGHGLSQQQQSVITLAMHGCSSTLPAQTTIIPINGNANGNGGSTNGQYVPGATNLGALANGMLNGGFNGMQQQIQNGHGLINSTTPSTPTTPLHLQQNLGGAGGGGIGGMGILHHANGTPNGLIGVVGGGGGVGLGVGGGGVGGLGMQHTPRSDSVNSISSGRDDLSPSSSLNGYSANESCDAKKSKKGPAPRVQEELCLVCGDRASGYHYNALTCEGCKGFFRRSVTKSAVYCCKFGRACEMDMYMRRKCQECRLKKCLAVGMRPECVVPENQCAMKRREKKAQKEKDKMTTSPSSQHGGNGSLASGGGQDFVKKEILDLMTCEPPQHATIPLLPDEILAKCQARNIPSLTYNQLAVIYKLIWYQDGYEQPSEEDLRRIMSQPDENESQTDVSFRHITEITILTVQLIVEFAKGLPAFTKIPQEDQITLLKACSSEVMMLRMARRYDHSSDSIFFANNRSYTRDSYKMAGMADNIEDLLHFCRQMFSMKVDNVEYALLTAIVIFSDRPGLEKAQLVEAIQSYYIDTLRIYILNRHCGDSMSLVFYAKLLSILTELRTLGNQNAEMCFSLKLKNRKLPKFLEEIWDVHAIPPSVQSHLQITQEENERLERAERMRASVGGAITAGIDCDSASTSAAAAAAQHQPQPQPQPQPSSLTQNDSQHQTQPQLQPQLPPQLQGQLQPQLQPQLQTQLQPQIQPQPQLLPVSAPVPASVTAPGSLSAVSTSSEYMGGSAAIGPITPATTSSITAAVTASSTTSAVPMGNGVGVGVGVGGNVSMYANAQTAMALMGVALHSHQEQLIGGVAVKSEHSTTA
Test: gel mobility shift on 32P-labelled EcRE probe, proteins translated in vitro
Method: The reactions were allowed to proceed at 23° C. for 5 minutes at which time ligand or vehicle was added and the reaction allowed to continue for 20 additional minutes. Band volumes were quantified using laser scanning densitometry.

Binder | binding result
B1 | binds
B2 | binds
